According to patent publication US20190233493A1 (Sanofi, published 2019):
Values belong to the binder of their own block, whether it stands above or below them. *1 amine or outer side, *2 acyl side, *3 side chain or, on linkers, in order; H or OH if unused. Primed or numbered codes have the meaning given here. Side-chain parts run from the residue outwards. [ ]: non-standard residue; d: D form. The star is where a group is joined. PEG12 = NCCOCCOCCOCCOCCOCCOCCOCCOCCOCCOCCOCCOCCC(=O)O; γGlu = O=C(O)[C@H](CCC(=O)[*:2])N[*:1]; 1Nal = N[C@@H](Cc1cccc2ccccc12)C(=O)O; Stearoyl = CCCCCCCCCCCCCCCCCC(=O)*; Palmitoyl = CCCCCCCCCCCCCCCC(=O)*; αMeK = C[C@](N)(CCCCN)C(=O)O; Nle = CCCC[C@H](N)C(=O)O; PEG2′ = PEG2 spacer unit; Aib = CC(C)(N)C(=O)O

Molecular target: T1, RXFP1 receptor (UniProt Q9HBX9 1-757, limits assumed)
T1 sequence (looked up): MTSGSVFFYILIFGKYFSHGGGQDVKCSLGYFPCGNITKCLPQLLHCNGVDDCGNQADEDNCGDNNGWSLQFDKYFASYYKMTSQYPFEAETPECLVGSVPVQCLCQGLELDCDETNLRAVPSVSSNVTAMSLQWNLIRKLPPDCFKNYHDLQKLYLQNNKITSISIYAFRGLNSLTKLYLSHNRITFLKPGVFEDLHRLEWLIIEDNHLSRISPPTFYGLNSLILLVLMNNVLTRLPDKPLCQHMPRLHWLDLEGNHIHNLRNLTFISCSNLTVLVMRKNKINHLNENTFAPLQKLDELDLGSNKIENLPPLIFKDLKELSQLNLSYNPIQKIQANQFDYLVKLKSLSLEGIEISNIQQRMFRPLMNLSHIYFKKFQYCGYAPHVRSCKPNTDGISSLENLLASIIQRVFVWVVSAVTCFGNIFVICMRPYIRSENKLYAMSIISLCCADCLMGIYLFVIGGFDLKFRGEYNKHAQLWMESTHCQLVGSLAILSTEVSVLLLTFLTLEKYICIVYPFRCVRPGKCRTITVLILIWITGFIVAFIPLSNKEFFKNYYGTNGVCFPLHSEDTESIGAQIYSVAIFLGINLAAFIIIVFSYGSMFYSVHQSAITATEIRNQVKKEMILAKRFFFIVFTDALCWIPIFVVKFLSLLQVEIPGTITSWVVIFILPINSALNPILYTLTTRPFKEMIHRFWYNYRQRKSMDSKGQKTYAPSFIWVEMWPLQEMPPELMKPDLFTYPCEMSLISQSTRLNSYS
Assay: cell-based or functional assay

EC50 (nM), OVCAR 5 cells (cAMP): 0.03 nM
EMax, OVCAR 5 cells (cAMP): 91%
B1: peptide of SEQ ID NO: 39 (peptide)
peptide: Ac-LEGREKVRAK(Ac)I[Aib][Aib]EG[Nle]STWXKRKK(Ac)[PEG12]K([γGlu-γGlu-γGlu-γGlu-Stearoyl])-NH2
modifications: not fully specified (some residues); printed as Ac-L-E-G-R-E-K-V-R-A-K(Ac)-I-Aib-Aib-E-G-Nle-S-T-W-Mse-K-R-K-K(Ac)-PEG12-K(gE-gE-gE-gE-Stea)-NH2

EC50 (nM), OVCAR 5 cells (cAMP): 0.02 nM
EMax, OVCAR 5 cells (cAMP): 90%
B2: peptide of SEQ ID NO: 40 (peptide)
peptide: Ac-LEGREKVRAK(Ac)I[Aib][Aib]EG[Nle]STWXXRKK(Ac)[PEG12]K([γGlu-γGlu-γGlu-γGlu-Stearoyl])-NH2
modifications: not fully specified (some residues); printed as Ac-L-E-G-R-E-K-V-R-A-K(Ac)-I-Aib-Aib-E-G-Nle-S-T-W-Mse-Mly-R-K-K(Ac)-PEG12-K(gE-gE-gE-gE-Stea)-NH2

EC50 (nM), OVCAR 5 cells (cAMP): 31.7 nM
EMax, OVCAR 5 cells (cAMP): 99%
B3: peptide of SEQ ID NO: 4 (peptide)
peptide: Ac-ELEGREKVRAAI[Aib][Aib]EG[Nle]STWS[Aib]RKK([γGlu-γGlu-Palmitoyl])-NH2
SMILES: CCCCCCCCCCCCCCCC(=O)N[C@@H](CCC(=O)N[C@@H](CCC(=O)NCCCC[C@H](NC(=O)[C@H](CCCCN)NC(=O)[C@H](CCCNC(=N)N)NC(=O)C(C)(C)NC(=O)[C@H](CO)NC(=O)[C@H](Cc1c[nH]c2ccccc12)NC(=O)[C@@H](NC(=O)[C@H](CO)NC(=O)[C@H](CCCC)NC(=O)CNC(=O)[C@H](CCC(=O)O)NC(=O)C(C)(C)NC(=O)C(C)(C)NC(=O)[C@@H](NC(=O)[C@H](C)NC(=O)[C@H](C)NC(=O)[C@H](CCCNC(=N)N)NC(=O)[C@@H](NC(=O)[C@H](CCCCN)NC(=O)[C@H](CCC(=O)O)NC(=O)[C@H](CCCNC(=N)N)NC(=O)CNC(=O)[C@H](CCC(=O)O)NC(=O)[C@H](CC(C)C)NC(=O)[C@H](CCC(=O)O)NC(C)=O)C(C)C)[C@@H](C)CC)[C@@H](C)O)C(N)=O)C(=O)O)C(=O)O

EC50 (nM), OVCAR 5 cells (cAMP): 0.14 nM
EMax, OVCAR 5 cells (cAMP): 106%
B4: peptide of SEQ ID NO: 43 (peptide)
peptide: Ac-LEGREKVRAK(Ac)I[Aib][Aib]EG[Nle]STWS[αMeK]RKK(Ac)[PEG12]K([γGlu-γGlu-γGlu-γGlu-Palmitoyl])-NH2

EC50 (nM), OVCAR 5 cells (cAMP): 0.21 nM
EMax, OVCAR 5 cells (cAMP): 89%
B5: peptide of SEQ ID NO: 38 (peptide)
peptide: Ac-LEGREKVRAK(Ac)I[Aib][Aib]EG[Nle]STWS[Aib]RK[PEG12]K([γGlu-γGlu-γGlu-Palmitoyl])-NH2
SMILES: CCCCCCCCCCCCCCCC(=O)N[C@@H](CCC(=O)N[C@@H](CCC(=O)N[C@@H](CCC(=O)NCCCC[C@H](NC(=O)CCOCCOCCOCCOCCOCCOCCOCCOCCOCCOCCOCCOCCNC(=O)[C@H](CCCCN)NC(=O)[C@H](CCCNC(=N)N)NC(=O)C(C)(C)NC(=O)[C@H](CO)NC(=O)[C@H](Cc1c[nH]c2ccccc12)NC(=O)[C@@H](NC(=O)[C@H](CO)NC(=O)[C@H](CCCC)NC(=O)CNC(=O)[C@H](CCC(=O)O)NC(=O)C(C)(C)NC(=O)C(C)(C)NC(=O)[C@@H](NC(=O)[C@H](CCCCNC(C)=O)NC(=O)[C@H](C)NC(=O)[C@H](CCCNC(=N)N)NC(=O)[C@@H](NC(=O)[C@H](CCCCN)NC(=O)[C@H](CCC(=O)O)NC(=O)[C@H](CCCNC(=N)N)NC(=O)CNC(=O)[C@H](CCC(=O)O)NC(=O)[C@H](CC(C)C)NC(C)=O)C(C)C)[C@@H](C)CC)[C@@H](C)O)C(N)=O)C(=O)O)C(=O)O)C(=O)O

EC50 (nM), OVCAR 5 cells (cAMP): 0.89 nM
EMax, OVCAR 5 cells (cAMP): 84%
B6: peptide of SEQ ID NO: 36 (peptide)
peptide: Ac-LEGREKVR[Aib]K(Ac)I[Aib][Aib]EG[Nle]STWS[Aib]RKK(Ac)[PEG12]K([γGlu-γGlu-γGlu-Stearoyl])-NH2
SMILES: CCCCCCCCCCCCCCCCCC(=O)N[C@@H](CCC(=O)N[C@@H](CCC(=O)N[C@@H](CCC(=O)NCCCC[C@H](NC(=O)CCOCCOCCOCCOCCOCCOCCOCCOCCOCCOCCOCCOCCNC(=O)[C@H](CCCCNC(C)=O)NC(=O)[C@H](CCCCN)NC(=O)[C@H](CCCNC(=N)N)NC(=O)C(C)(C)NC(=O)[C@H](CO)NC(=O)[C@H](Cc1c[nH]c2ccccc12)NC(=O)[C@@H](NC(=O)[C@H](CO)NC(=O)[C@H](CCCC)NC(=O)CNC(=O)[C@H](CCC(=O)O)NC(=O)C(C)(C)NC(=O)C(C)(C)NC(=O)[C@@H](NC(=O)[C@H](CCCCNC(C)=O)NC(=O)C(C)(C)NC(=O)[C@H](CCCNC(=N)N)NC(=O)[C@@H](NC(=O)[C@H](CCCCN)NC(=O)[C@H](CCC(=O)O)NC(=O)[C@H](CCCNC(=N)N)NC(=O)CNC(=O)[C@H](CCC(=O)O)NC(=O)[C@H](CC(C)C)NC(C)=O)C(C)C)[C@@H](C)CC)[C@@H](C)O)C(N)=O)C(=O)O)C(=O)O)C(=O)O

EC50 (nM), OVCAR 5 cells (cAMP): 16.1 nM
EMax, OVCAR 5 cells (cAMP): 75%
B7: peptide of SEQ ID NO: 44 (peptide)
peptide: Ac-LEGREKVRAK(Ac)I[Aib][Aib]EGQSTYS[Aib]RKK(Ac)K([PEG2′-PEG2′-PEG2′-γGlu-γGlu-γGlu-Palmitoyl])-NH2

EC50 (nM), OVCAR 5 cells (cAMP): 0.01 nM
EMax, OVCAR 5 cells (cAMP): 91%
B8: peptide of SEQ ID NO: 42 (peptide)
peptide: Ac-LEGREKVRAK(Ac)I[Aib][Aib]EG[Nle]STWS[αMeK]RKK(Ac)[PEG12]K([γGlu-γGlu-γGlu-γGlu-Stearoyl])-NH2
SMILES: CCCCCCCCCCCCCCCCCC(=O)N[C@@H](CCC(=O)N[C@@H](CCC(=O)N[C@@H](CCC(=O)N[C@@H](CCC(=O)NCCCC[C@H](NC(=O)CCOCCOCCOCCOCCOCCOCCOCCOCCOCCOCCOCCOCCNC(=O)[C@H](CCCCNC(C)=O)NC(=O)[C@H](CCCCN)NC(=O)[C@H](CCCNC(=N)N)NC(=O)[C@](C)(CCCCN)NC(=O)[C@H](CO)NC(=O)[C@H](Cc1c[nH]c2ccccc12)NC(=O)[C@@H](NC(=O)[C@H](CO)NC(=O)[C@H](CCCC)NC(=O)CNC(=O)[C@H](CCC(=O)O)NC(=O)C(C)(C)NC(=O)C(C)(C)NC(=O)[C@@H](NC(=O)[C@H](CCCCNC(C)=O)NC(=O)[C@H](C)NC(=O)[C@H](CCCNC(=N)N)NC(=O)[C@@H](NC(=O)[C@H](CCCCN)NC(=O)[C@H](CCC(=O)O)NC(=O)[C@H](CCCNC(=N)N)NC(=O)CNC(=O)[C@H](CCC(=O)O)NC(=O)[C@H](CC(C)C)NC(C)=O)C(C)C)[C@@H](C)CC)[C@@H](C)O)C(N)=O)C(=O)O)C(=O)O)C(=O)O)C(=O)O

EC50 (nM), OVCAR 5 cells (cAMP): 0.09 nM
EMax, OVCAR 5 cells (cAMP): 87%
B9: peptide of SEQ ID NO: 41 (peptide)
peptide: Ac-LEGREKVRAK(Ac)I[Aib][Aib]EG[Nle]STWX[Aib]RKK(Ac)[PEG12]K([γGlu-γGlu-γGlu-Stearoyl])-NH2
modifications: not fully specified (some residues); printed as Ac-L-E-G-R-E-K-V-R-A-K(Ac)-I-Aib-Aib-E-G-Nle-S-T-W-Mse-Aib-R-K-K(Ac)-PEG12-K(gE-gE-gE-Stea)-NH2

EC50 (nM), OVCAR 5 cells (cAMP): 2.49 nM
EMax, OVCAR 5 cells (cAMP): 83%
B10: peptide of SEQ ID NO: 37 (peptide)
peptide: Ac-LEGREKVR[Aib]K(Ac)I[Aib][Aib]EG[Nle]ST[1Nal]S[Aib]RKK(Ac)[PEG12]K([γGlu-γGlu-γGlu-Stearoyl])-NH2
SMILES: CCCCCCCCCCCCCCCCCC(=O)N[C@@H](CCC(=O)N[C@@H](CCC(=O)N[C@@H](CCC(=O)NCCCC[C@H](NC(=O)CCOCCOCCOCCOCCOCCOCCOCCOCCOCCOCCOCCOCCNC(=O)[C@H](CCCCNC(C)=O)NC(=O)[C@H](CCCCN)NC(=O)[C@H](CCCNC(=N)N)NC(=O)C(C)(C)NC(=O)[C@H](CO)NC(=O)[C@H](Cc1cccc2ccccc12)NC(=O)[C@@H](NC(=O)[C@H](CO)NC(=O)[C@H](CCCC)NC(=O)CNC(=O)[C@H](CCC(=O)O)NC(=O)C(C)(C)NC(=O)C(C)(C)NC(=O)[C@@H](NC(=O)[C@H](CCCCNC(C)=O)NC(=O)C(C)(C)NC(=O)[C@H](CCCNC(=N)N)NC(=O)[C@@H](NC(=O)[C@H](CCCCN)NC(=O)[C@H](CCC(=O)O)NC(=O)[C@H](CCCNC(=N)N)NC(=O)CNC(=O)[C@H](CCC(=O)O)NC(=O)[C@H](CC(C)C)NC(C)=O)C(C)C)[C@@H](C)CC)[C@@H](C)O)C(N)=O)C(=O)O)C(=O)O)C(=O)O
